Measurements published in patent publication US20260176342A1 (CITRYLL B V, published 2026).
Square brackets hold non-standard residues; d marks the D form. Ends that are not written are not given here. Cit = NC(=O)NCCC[C@H](N)C(=O)O

How the values were obtained:
[1] = target: T1, citrullinated histone 2A-derived peptide (SEQ ID NO: 18), C-terminal biotin (human); test: Octet RED96 off-rate screen, biotinylated peptide on streptavidin biosensors, antibody 72 nM, 30 C
T1 construct: Captured by its biotin on NeutrAvidin plates (ELISA) or streptavidin biosensors (Octet); also called histone-derived peptide; citrullinated H2A-derived peptide
T1 peptide: SG[Cit]GKQGGKARA-biotin
Procedure: (§1) Off-rate screening of the isomerization-mutated antibodies was performed on an Octet® RED96 (biomolecule detection system) instrument (Pall ForteBio). All measurements were performed at 30° C. Streptavidin (SA) biosensors were first washed for 50 sec with PBS. 1 μg/ml N-terminal histone 2A (SEQ ID NO: 18) and histone 4 (SEQ ID NO: 20) peptides, containing both a citrulline at position 3 and a biotin at the C-terminus, were immobilized on SA biosensors for 200 sec, washed with PBS for 50 sec and excess reactive streptavidin molecules blocked with EZ-Link™ biocytin for 200 sec. After two additional 50 sec wash steps in PBS, antibodies at a concentration of 72 nM diluted in PBS were allowed to bind to the biosensors for 200 sec. Sensors were subsequently placed in PBS for 4000 sec in order to measure their dissociation rates.
(§2) Background signals generated with non-coated biosensors, which have been exposed to the various antibodies as well as signals from coated biosensors that have not been exposed to the various antibodies, have been subtracted before dissociation curves for each antibody were plotted. Both histone 2A and histone 4 dissociation rates constants (kdis×E-07 (1/s)) for each antibody were calculated applying a 1:1 interaction model (fitting local, full) using ForteBio data analysis software 8.1.

[2] = target: T2, citrullinated histone 4-derived peptide (SEQ ID NO: 20), C-terminal biotin (human, citrulline at position 3; biotin at the C-terminus); test: as above
T2 construct: Immobilized on streptavidin biosensors (Octet RED96); also called H4-derived peptide; N-terminal histone 4 peptide
T2 peptide: SGXGKGGKGLGK
Procedure: as §1, §2

[3] = target: T1, citrullinated histone 2A-derived …; test: CMC ELISA, biotinylated peptide on NeutrAvidin-coated plate, anti-human-HRP, OD 450 nm, interpolated on the hMQ22.101f/g calibration curve
Procedure: (§3) hMQ22.101j/e samples from week 0, 2, 4, 6 and 8, and hMQ22.101f/g samples from week 0, 3 and 6 were subjected to an in house-validated CMC ELISA. 96-well ELISA plates were coated with NeutrAvidin™ ([…]) by overnight incubation at 4° C. Wells were washed 5 times with PBS-Tween® (polysorbate) 20 (PBS-T) and blocked by a 2 hour incubation with PBS-T+1% Bovine serum albumin (BSA) at room temperature (RT). After 5 more washes with PBS-T, wells were incubated for 1 hour at RT with a histone-derived peptide (SEQ ID NO 18: SGXGKQGGKARA), containing a citrulline (X) at position 3 and a C-terminal biotin (40 ng/well) in PBS-T+0.2% BSA. After another 5 washes with PBS-T, a calibration curve made from a reference lot of hMQ22.101j/e or hMQ22.101f/g by adding to the wells starting at […] and further diluted at a 1:1 ratio until reaching a concentration of 0.66 ng/ml in PBS-T+0.2% BSA. Spiked quality control (QC) samples made from the same reference lot hMQ22.101j/e or hMQ22.101f/g at higher (HQC, 250 ng/ml), middle (MQC, 50 ng/ml), lower (LQC 3.75 ng/ml) and lower limit quality control (LLQC, 1.25 ng/ml) were diluted in PBS-T+0.2% BSA and added to the plate as well. These QC samples were used in order to validate the ELISA results.
(§4) Finally, accelerated stability samples that had been incubated for 0, 2, 3, 4, 6 and 8 weeks at 37° C. were added to the same plate at a concentration of 40 ng/ml in PBS-T+0.2% BSA and incubated for 2 hours at RT. Wells were washed 5 times with PBS-T and incubated with rabbit anti-human-HRP antibody (1:12.000 in PBS-T+0.2% BSA) for 1 hour at RT followed by 3 washes with PBS-T and 3 washes with PBS. Wells were incubated 10 min with TMB substrate before stopping the reaction with 2 M H₂SO₄ after which the optical density was measured at wavelength of 450 nm. A sigmoidal calibration curve was plotted and fitted using the values from the serial diluted reference antibody. Concentrations of the QC samples and accelerated stability samples were recalculated using the equation from the sigmoidal fitted curve.

[4] = target: T1, citrullinated histone 2A-derived …; test: CMC ELISA, biotinylated peptide on NeutrAvidin-coated plate, anti-human-HRP, OD 450 nm, interpolated on a calibration curve
Procedure: as §3, with “Spiked quality control (QC) samples made from the same reference lot hMQ22.101j/e or hMQ22.101f/g at higher (HQC, 250 ng/ml), middle (MQC, 50 ng/ml), lower (LQC 3.75 ng/ml) and lower limit quality control (LLQC, 1.25 ng/ml) were diluted in PBS-T+0.2% BSA and added to the plate as well. These QC samples were used in order to validate the ELISA results.” left out
Finally, accelerated stability samples that had been incubated for 0, 2, 3, 4, 6 and 8 weeks at 37° C. were added to the same plate at a concentration of 40 ng/ml in PBS-T+0.2% BSA and incubated for 2 hours at RT. […] Wells were incubated 10 min with TMB substrate before stopping the reaction with 2 M H₂SO₄ after which the optical density was measured at wavelength of 450 nm. […]

[5] = target: T1, citrullinated histone 2A-derived …; test: CMC ELISA, biotinylated peptide on NeutrAvidin-coated plate, anti-human-HRP, OD 450 nm
Procedure: as §3, §4

B1: hMQ22.101HC9/LC41 (antibody, V domains shown)
VH: RIQLVQSGAEVKKPGASVKVSCKASGYTFTNYGMHWVRQAPGQGLEWMGWINTYSGEATYVDDFQGRVTMTRDTSISTAYMELSRLRSDDTAVYYCLRGYTYQSFDEGGDYWGQGTLVTVSS
VL: DVVMTQSPLSLPVTLGQPASISCRSSQSLLDADGKTYLNWFQQRPGQSPRRLIYLVSKLDSGVPDRFSGSGSGTDFTLKISRVEAEDVGVYYCWQGTHFPYTFGQGTKLEIK
notes: also called isomerization mutant; heavy chain hVH22.101HC9 with light chain hVL22.101LC41
B1: binds [1]; binds [2].

B2: hMQ22.101HC9/LC42 (antibody, V domains shown)
VH: RIQLVQSGAEVKKPGASVKVSCKASGYTFTNYGMHWVRQAPGQGLEWMGWINTYSGEATYVDDFQGRVTMTRDTSISTAYMELSRLRSDDTAVYYCLRGYTYQSFDEGGDYWGQGTLVTVSS
VL: DVVMTQSPLSLPVTLGQPASISCRSSQSLLDNDGKTYLNWFQQRPGQSPRRLIYLVSKLDSGVPDRFSGSGSGTDFTLKISRVEAEDVGVYYCWQGTHFPYTFGQGTKLEIK
notes: also called isomerization mutant; heavy chain hVH22.101HC9 with light chain hVL22.101LC42
B2: binds [1]; binds [2].

B3: hMQ22.101f/LC17 (antibody, V domains shown)
VH: RIQLVQSGAEVKKPGASVKVSCKASGYTFTNYGMHWVRQAPGQGLEWMGWINTYSGEATYAQKFQGRVTMTRDTSISTAYMELSRLRSDDTAVYYCLRGYTYQSFDEGGDYWGQGTLVTVSS
VL: DVVMTQSPLSLPVTLGQPASISCRSSQSLLDTDGKTYLNWFQQRPGQSPRRLIYLVSKLDSGVPDRFSGSGSGTDFTLKISRVEAEDVGVYYCWQGTHFPYTFGQGTKLEIK
notes: also called isomerization mutant; heavy chain hVH22.101f with light chain hVL22.101LC17
B3: binds [3].

B4: hMQ22.101f/LC27 (antibody, V domains shown)
VH: RIQLVQSGAEVKKPGASVKVSCKASGYTFTNYGMHWVRQAPGQGLEWMGWINTYSGEATYAQKFQGRVTMTRDTSISTAYMELSRLRSDDTAVYYCLRGYTYQSFDEGGDYWGQGTLVTVSS
VL: DVVMTQSPLSLPVTLGQPASISCRSSQSLLDTDAKTYLNWFQQRPGQSPRRLIYLVSKLDSGVPDRFSGSGSGTDFTLKISRVEAEDVGVYYCWQGTHFPYTFGQGTKLEIK
notes: also called isomerization mutant; heavy chain hVH22.101f with light chain hVL22.101LC27
B4: binds [3].

B5: hMQ22.101f/LC41 (antibody, V domains shown)
VH: RIQLVQSGAEVKKPGASVKVSCKASGYTFTNYGMHWVRQAPGQGLEWMGWINTYSGEATYAQKFQGRVTMTRDTSISTAYMELSRLRSDDTAVYYCLRGYTYQSFDEGGDYWGQGTLVTVSS
VL: DVVMTQSPLSLPVTLGQPASISCRSSQSLLDADGKTYLNWFQQRPGQSPRRLIYLVSKLDSGVPDRFSGSGSGTDFTLKISRVEAEDVGVYYCWQGTHFPYTFGQGTKLEIK
notes: also called development candidate; isomerization mutant
B5: binds [3].

B6: hMQ22.101f/LC42 (antibody, V domains shown)
VH: RIQLVQSGAEVKKPGASVKVSCKASGYTFTNYGMHWVRQAPGQGLEWMGWINTYSGEATYAQKFQGRVTMTRDTSISTAYMELSRLRSDDTAVYYCLRGYTYQSFDEGGDYWGQGTLVTVSS
VL: DVVMTQSPLSLPVTLGQPASISCRSSQSLLDNDGKTYLNWFQQRPGQSPRRLIYLVSKLDSGVPDRFSGSGSGTDFTLKISRVEAEDVGVYYCWQGTHFPYTFGQGTKLEIK
notes: also called isomerization mutant; heavy chain hVH22.101f with light chain hVL22.101LC42
B6: binds [3].

B7: hMQ22.101f/g (antibody, V domains shown)
VH: RIQLVQSGAEVKKPGASVKVSCKASGYTFTNYGMHWVRQAPGQGLEWMGWINTYSGEATYAQKFQGRVTMTRDTSISTAYMELSRLRSDDTAVYYCLRGYTYQSFDEGGDYWGQGTLVTVSS
VL: DVVMTQSPLSLPVTLGQPASISCRSSQSLLDSDGKTYLNWFQQRPGQSPRRLIYLVSKLDSGVPDRFSGSGSGTDFTLKISRVEAEDVGVYYCWQGTHFPYTFGQGTKLEIK
notes: Full-size humanized antibody; also called humanized therapeutic antibody with heavy chain hVH22.101f and light chain hVL22.101g; tACPA
B7: binds [2]; binds [4].

B8: hMQ22.101j/LC21 (antibody, V domains shown)
VH: QVQLVQSGAEVKKPGASVKVSCKASGYTFTNYGMHWVRQAPGQGLEWMGWINTYSGEATYAQKFQGRVTMTRDTSISTAYMELSRLRSDDTAVYYCLRGYTYQSFDEGGDYWGQGTLVTVSS
VL: DVVMTQSPLSLPVTLGQPASISCRSSQSLLDSDAKTYLNWFQQRPGQSPRRLIYLVSKLDSGVPDRFSGSGSGTDFTLKISRVEAEDVGVYYCWQGTHFPYTFGQGTKLEIK
notes: also called isomerization mutant; heavy chain hVH22.101j with light chain hVL22.101LC21
B8: binds [1]; binds [2].

B9: hMQ22.101j/LC27 (antibody, V domains shown)
VH: QVQLVQSGAEVKKPGASVKVSCKASGYTFTNYGMHWVRQAPGQGLEWMGWINTYSGEATYAQKFQGRVTMTRDTSISTAYMELSRLRSDDTAVYYCLRGYTYQSFDEGGDYWGQGTLVTVSS
VL: DVVMTQSPLSLPVTLGQPASISCRSSQSLLDTDAKTYLNWFQQRPGQSPRRLIYLVSKLDSGVPDRFSGSGSGTDFTLKISRVEAEDVGVYYCWQGTHFPYTFGQGTKLEIK
notes: also called isomerization mutant; heavy chain hVH22.101j with light chain hVL22.101LC27
B9: binds [1]; binds [2].

B10: hMQ22.101j/LC41 (antibody, V domains shown)
VH: QVQLVQSGAEVKKPGASVKVSCKASGYTFTNYGMHWVRQAPGQGLEWMGWINTYSGEATYAQKFQGRVTMTRDTSISTAYMELSRLRSDDTAVYYCLRGYTYQSFDEGGDYWGQGTLVTVSS
VL: DVVMTQSPLSLPVTLGQPASISCRSSQSLLDADGKTYLNWFQQRPGQSPRRLIYLVSKLDSGVPDRFSGSGSGTDFTLKISRVEAEDVGVYYCWQGTHFPYTFGQGTKLEIK
notes: also called isomerization mutant; heavy chain hVH22.101j with light chain hVL22.101LC41
B10: binds [1]; binds [2].

B11: hMQ22.101j/LC42 (antibody, V domains shown)
VH: QVQLVQSGAEVKKPGASVKVSCKASGYTFTNYGMHWVRQAPGQGLEWMGWINTYSGEATYAQKFQGRVTMTRDTSISTAYMELSRLRSDDTAVYYCLRGYTYQSFDEGGDYWGQGTLVTVSS
VL: DVVMTQSPLSLPVTLGQPASISCRSSQSLLDNDGKTYLNWFQQRPGQSPRRLIYLVSKLDSGVPDRFSGSGSGTDFTLKISRVEAEDVGVYYCWQGTHFPYTFGQGTKLEIK
notes: also called isomerization mutant; heavy chain hVH22.101j with light chain hVL22.101LC42
B11: binds [1]; binds [2].

B12: hMQ22.101j/h (antibody, V domains shown)
VH: QVQLVQSGAEVKKPGASVKVSCKASGYTFTNYGMHWVRQAPGQGLEWMGWINTYSGEATYAQKFQGRVTMTRDTSISTAYMELSRLRSDDTAVYYCLRGYTYQSFDEGGDYWGQGTLVTVSS
VL: DVVMTQSPLSLPVTLGQPASISCRSSQSLVASDGKTYLNWFQQRPGQSPRRLIYLVSKLDSGVPDRFSGSGSGTDFTLKISRVEAEDVGVYYCWQGTHFPYTFGQGTKLEIK
notes: also called VL CDR1 aspartate-mutated antibody (DS site to AS)
B12: binds [5].

B13: hMQ22.101j/i (antibody, V domains shown)
VH: QVQLVQSGAEVKKPGASVKVSCKASGYTFTNYGMHWVRQAPGQGLEWMGWINTYSGEATYAQKFQGRVTMTRDTSISTAYMELSRLRSDDTAVYYCLRGYTYQSFDEGGDYWGQGTLVTVSS
VL: DVVMTQSPLSLPVTLGQPASISCRSSQSLVESDGKTYLNWFQQRPGQSPRRLIYLVSKLDSGVPDRFSGSGSGTDFTLKISRVEAEDVGVYYCWQGTHFPYTFGQGTKLEIK
notes: also called VL CDR1 aspartate-mutated antibody (DS site to ES); heavy chain hVH22.101j with light chain hVL22.101i
B13: binds [5].

B14: hMQ22.101j/j (antibody, V domains shown)
VH: QVQLVQSGAEVKKPGASVKVSCKASGYTFTNYGMHWVRQAPGQGLEWMGWINTYSGEATYAQKFQGRVTMTRDTSISTAYMELSRLRSDDTAVYYCLRGYTYQSFDEGGDYWGQGTLVTVSS
VL: DVVMTQSPLSLPVTLGQPASISCRSSQSLVSSDGKTYLNWFQQRPGQSPRRLIYLVSKLDSGVPDRFSGSGSGTDFTLKISRVEAEDVGVYYCWQGTHFPYTFGQGTKLEIK
notes: also called VL CDR1 aspartate-mutated antibody (DS site to SS)
B14: binds [5].
